Test results reported in US12269859B2, “Synthetic immune receptors and methods of use thereof” (Angeles Therapeutics, Inc., priority 2016, dated 2025).

B1: 012517-G12 (protein)
chain: MALPVTALLLPLALLLHAARPLEGKPIPNPLLGLDSTGSGEDLKNVFPPEVAVFEPSKAEIAHTQKATLVCLATGFYPDHVELSWWVNGKEVHSGVCTDPQPLKEQPALNDSRYCLSSRLRVSATFWQNPRNHFRCQVQFYGLSENDEWTQDRAKPVTQIVSAEAWGRADCGITSASYHQGVLSATILYEILLGKATLYAVLVSALVLMAMVKRKDSRGRAKRSGSGATNFSLLKQAGDVEENPGPTSMALPVTALLLPLALLLHAARPDFVMTQSPDSLAVSLGERVTMSCKSSQSLLNSGNQKNYLTWYQQKPGQPPKLLIYWASTRESGVPDRFSGSGSGTDFTLTISSLQAEDVAVYYCQNDYSYPYTFGQGTKLEIKGGGGSGGGGSGGGGSQVQLVQSGAELKKPGASVKVSCKASGYTFTDYYMKWVRQAPGQGLEWIGDIIPSNGATFYNQKFKGRVTITVDKSTSTAYMELSSLRSEDTAVYYCARSHLLRASWFAYWGQGTLVTVSSTREQKLISEEDGSGIQNPDPAVYQLRDSKSSDKSVCLFTDFDSQTNVSQSKDSDVYITDKCVLDMRSMDFKSNSAVAWSNKSDFACANAFNNSIIPEDTFFPSSDVPCDVKLVEKSFETDTNLNFQNLSVIGFRILLLKVAGFNLLMTLRLWSSRAKRSGSGVKQTLNFDLLKLAGDVESNPGPSRGHMTEYKPTVRLATRDDVPRAVRTLAAAFADYPATRHTVDPDRHIERVTELQELFLTRVGLDIGKVWVADDGAAVAVWTTPESVEAGAVFAEIGPRMAELSGSRLAAQQQMEGLLAPHRPKEPAWFLATVGVSPDHQGKGLGSAVVLPGVEAAERAGVPAFLETSAPRNLPFYERLGFTVTADVEVPEGPRTWCMTRKPGA
B2: 031517-T06 (protein)
chain: MALPVTALLLPLALLLHAARPLEGKPIPNPLLGLDSTGSGEDLKNVFPPEVAVFEPSKAEIAHTQKATLVCLATGFYPDHVELSWWVNGKEVHSGVCTDPQPLKEQPALNDSRYCLSSRLRVSATFWQNPRNHFRCQVQFYGLSENDEWTQDRAKPVTQIVSAEAWGRADCGITSASYHQGVLSATILYEILLGKATLYAVLVSALVLMAMVKRKDSRGRAKRSGSGATNFSLLKQAGDVEENPGPTSMALPVTALLLPLALLLHAARPDIVLTQSPATLSLSPGDRATLSCRASESVTILGSHLIYWYQQKPGQAPRLLIQLASNVQTGIPARFSGSGSRTDFTLTISSLEPEDFAVYYCLQSRTIPRTFGQGTKLEIKRGGGGSGGGGSGGGGSQVQLVQSGSELKKPGESVKISCKASGYTFTHYSMNWVRQAPGQGLEWMGRINTETGEPLYADDFKGRFVFSLDTSASTAYLQISSLKAEDTAVYYCSNDYLYSLDYWGQGTLVTVSSTREQKLISEEDGSGIQNPDPAVYQLRDSKSSDKSVCLFTDFDSQTNVSQSKDSDVYITDKCVLDMRSMDFKSNSAVAWSNKSDFACANAFNNSIIPEDTFFPSSDVPCDVKLVEKSFETDTNLNFQNLSVIGFRILLLKVAGFNLLMTLRLWSSRAKRSGSGVKQTLNFDLLKLAGDVESNPGPSRGHMTEYKPTVRLATRDDVPRAVRTLAAAFADYPATRHTVDPDRHIERVTELQELFLTRVGLDIGKVWVADDGAAVAVWTTPESVEAGAVFAEIGPRMAELSGSRLAAQQQMEGLLAPHRPKEPAWFLATVGVSPDHQGKGLGSAVVLPGVEAAERAGVPAFLETSAPRNLPFYERLGFTVTADVEVPEGPRTWCMTRKPGA
B3: 090116-H02 (protein)
chain: MALPVTALLLPLALLLHAARPLEGKPIPNPLLGLDSTGSGEDLKNVFPPEVAVFEPSKAEIAHTQKATLVCLATGFYPDHVELSWWVNGKEVHSGVCTDPQPLKEQPALNDSRYCLSSRLRVSATFWQNPRNHFRCQVQFYGLSENDEWTQDRAKPVTQIVSAEAWGRADCGITSASYHQGVLSATILYEILLGKATLYAVLVSALVLMAMVKRKDSRGRAKRSGSGATNFSLLKQAGDVEENPGPTSMALPVTALLLPLALLLHAARPDIQMTQSTSSLSASLGDRVTISCSASQGINNYLNWYQQKPDGTVELLIYYTSTLQSGVPSRFSGSGSGTDYSLTISNLEPEDIGTYYCQQYSKLPRTFGGGTKLEIKGGGGSGGGGSGGGGSQVQLQQSGSELMMPGASVKISCKATGYTFSNYWIEWVKQRPGHGLEWIGEILPGTGRTIYNEKFKGKATFTADISSNTVQMQLSSLTSEDSAVYYCARRDYYGNFYYAMDYWGQGTSVTVSSTREQKLISEEDGSGIQNPDPAVYQLRDSKSSDKSVCLFTDFDSQTNVSQSKDSDVYITDKCVLDMRSMDFKSNSAVAWSNKSDFACANAFNNSIIPEDTFFPSSDVPCDVKLVEKSFETDTNLNFQNLSVIGFRILLLKVAGFNLLMTLRLWSSRAKRSGSGVKQTLNFDLLKLAGDVESNPGPSRGHMTEYKPTVRLATRDDVPRAVRTLAAAFADYPATRHTVDPDRHIERVTELQELFLTRVGLDIGKVWVADDGAAVAVWTTPESVEAGAVFAEIGPRMAELSGSRLAAQQQMEGLLAPHRPKEPAWFLATVGVSPDHQGKGLGSAVVLPGVEAAERAGVPAFLETSAPRNLPFYERLGFTVTADVEVPEGPRTWCMTRKPGA
modifications: Synthetic Immune Receptor (SIR)
B4: 012517-M12 (protein)
chain: MALPVTALLLPLALLLHAARPLEGKPIPNPLLGLDSTGSGEDLKNVFPPEVAVFEPSKAEIAHTQKATLVCLATGFYPDHVELSWWVNGKEVHSGVCTDPQPLKEQPALNDSRYCLSSRLRVSATFWQNPRNHFRCQVQFYGLSENDEWTQDRAKPVTQIVSAEAWGRADCGITSASYHQGVLSATILYEILLGKATLYAVLVSALVLMAMVKRKDSRGRAKRSGSGATNFSLLKQAGDVEENPGPTSMALPVTALLLPLALLLHAARPDVLMTQTPVSLPVSLGGQVSISCRSSQSLVHSDGDTYLHWYLQKPGQSPQLLIYRVSNRFSGVPDRFSGSGSGTDFTLKISRVEPEDLGLYYCLQTTHFPPWTFGGGTKLEMKGGGGSGGGGSGGGGSQVQLQQSGPELRRPGSSVRLSCKASGYRIKDFLIHWIKNRPEHGLEWIGWIDPEDGETKYAQKFQTKATLTADTSSNTAYMQLSSLTSEDTATYFCARWGDVYYGLMRGHVMDAWGQGTSVTVSSTREQKLISEEDGSGIQNPDPAVYQLRDSKSSDKSVCLFTDFDSQTNVSQSKDSDVYITDKCVLDMRSMDFKSNSAVAWSNKSDFACANAFNNSIIPEDTFFPSSDVPCDVKLVEKSFETDTNLNFQNLSVIGFRILLLKVAGFNLLMTLRLWSSRAKRSGSGVKQTLNFDLLKLAGDVESNPGPSRGHMTEYKPTVRLATRDDVPRAVRTLAAAFADYPATRHTVDPDRHIERVTELQELFLTRVGLDIGKVWVADDGAAVAVWTTPESVEAGAVFAEIGPRMAELSGSRLAAQQQMEGLLAPHRPKEPAWFLATVGVSPDHQGKGLGSAVVLPGVEAAERAGVPAFLETSAPRNLPFYERLGFTVTADVEVPEGPRTWCMTRKPGA
B5: 012517-J12 (protein)
chain: MALPVTALLLPLALLLHAARPLEGKPIPNPLLGLDSTGSGEDLKNVFPPEVAVFEPSKAEIAHTQKATLVCLATGFYPDHVELSWWVNGKEVHSGVCTDPQPLKEQPALNDSRYCLSSRLRVSATFWQNPRNHFRCQVQFYGLSENDEWTQDRAKPVTQIVSAEAWGRADCGITSASYHQGVLSATILYEILLGKATLYAVLVSALVLMAMVKRKDSRGRAKRSGSGATNFSLLKQAGDVEENPGPTSMALPVTALLLPLALLLHAARPDIQMTQSPASLSASLGETVTIECRTSKDIYSNLAWFQQEPGNSPQLLIYDASNLADGVPSRFSGSGSGTQYSLQINNLQSEDVASYFCHQYNNYPYTFGTGTKLELKGGGGSGGGGSGGGGSQVQLQESGPTLVNPGDSVKMSCKASGYTFTDHIIHWVKQSHGKSLEWIGYINPYSGGANYNGKFKSKATLTIDKSSSTAYMEFSRLTSGDSAIYYCALNYGSYYAMDAWGQGTSVTVSSTREQKLISEEDGSGIQNPDPAVYQLRDSKSSDKSVCLFTDFDSQTNVSQSKDSDVYITDKCVLDMRSMDFKSNSAVAWSNKSDFACANAFNNSIIPEDTFFPSSDVPCDVKLVEKSFETDTNLNFQNLSVIGFRILLLKVAGFNLLMTLRLWSSRAKRSGSGVKQTLNFDLLKLAGDVESNPGPSRGHMTEYKPTVRLATRDDVPRAVRTLAAAFADYPATRHTVDPDRHIERVTELQELFLTRVGLDIGKVWVADDGAAVAVWTTPESVEAGAVFAEIGPRMAELSGSRLAAQQQMEGLLAPHRPKEPAWFLATVGVSPDHQGKGLGSAVVLPGVEAAERAGVPAFLETSAPRNLPFYERLGFTVTADVEVPEGPRTWCMTRKPGA
B6: 083116-F05 (protein)
chain: MALPVTALLLPLALLLHAARPLEGKPIPNPLLGLDSTGSGEDLKNVFPPEVAVFEPSKAEIAHTQKATLVCLATGFYPDHVELSWWVNGKEVHSGVCTDPQPLKEQPALNDSRYCLSSRLRVSATFWQNPRNHFRCQVQFYGLSENDEWTQDRAKPVTQIVSAEAWGRADCGITSASYHQGVLSATILYEILLGKATLYAVLVSALVLMAMVKRKDSRGRAKRSGSGATNFSLLKQAGDVEENPGPTSMALPVTALLLPLALLLHAARPDIQMTQSTSSLSASLGDRVTISCSASQGINNYLNWYQQKPDGTVELLIYYTSTLQSGVPSRFSGSGSGTDYSLTISNLEPEDIGTYYCQQYSKLPRTFGGGTKLEIKGGGGSGGGGSGGGGSQVQLQQSGSELMMPGASVKISCKATGYTFSNYWIEWVKQRPGHGLEWIGEILPGTGRTIYNEKFKGKATFTADISSNTVQMQLSSLTSEDSAVYYCARRDYYGNFYYAMDYWGQGTSVTVSSTREQKLISEEDLGSGTPFPSLAPPIMLLVDGKQQMVVVCLVLDVAPPGLDSPIWFSAGNGSALDAFTYGPSPATDGTWTNLAHLSLPSEELASWEPLVCHTGPGAEGHSRSTQPMHLSGEASTARTCPQEPLRGTPGGALWLGVLRLLLFKLLLFDLLLTCSCLCDPAGPLPSPATTTRLRALGSHRLHPATETGGREATSSPRPQPRDRRWGDTPPGRKPGSPVRAKRSGSGVKQTLNFDLLKLAGDVESNPGPSRSRGHMTEYKPTVRLATRDDVPRAVRTLAAAFADYPATRHTVDPDRHIERVTELQELFLTRVGLDIGKVWVADDGAAVAVWTTPESVEAGAVFAEIGPRMAELSGSRLAAQQQMEGLLAPHRPKEPAWFLATVGVSPDHQGKGLGSAVVLPGVEAAERAGVPAFLETSAPRNLPFYERLGFTVTADVEVPEGPRTWCMTRKPGA
modifications: Polynucleotide encoding a Synthetic Immune Receptor (SIR)

Test system: target antigen-expressing cell line
Test: Jurkat NFAT-GFP assay, coculture with target cell lines expressing the respective target antigen (summary Table 10A)
Assay type: cell-based, human
Design: key: The signs +/−, +, 2+ etc. after the name of the cell lines indicate the relative degree of positivity on the Jurkat-NFAT-GFP assay as measured by the % GFP positive cells; +: relative degree of positivity on the Jurkat-NFAT-GFP assay as measured by the % GFP positive cells; 2+: relative degree of positivity on the Jurkat-NFAT-GFP assay as measured by the % GFP positive cells
Details: for NFAT-GFP ASSAY Positive Cell lines: L428: SIR-expressing Jurkat-NFAT-GFP cells cocultured with L428
How it was run: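 Readout is % GFP+ cells by FACS, graded +/− to 2+ relative to parental reporter cells. Jurkat-NFAT-GFP cells stably transduced with SIR constructs (puromycin-selected) were mixed with target-antigen-expressing cell lines at roughly 1:2 effector:target and cocultured ~4–18 h.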

| Molecule | NFAT-GFP ASSAY Positive Cell lines: L428 (relative % GFP positive cells) | NFAT-GFP ASSAY Positive Cell lines (coculture with U266 cells) | other results |
| --- | --- | --- | --- |
| B1 | L428 (+/−) | – | – |
| B2 | – | – | NFAT-GFP ASSAY Positive Cell lines: L363 (SIR-expressing Jurkat-NFAT-GFP cells cocultured with L363, relative % GFP positive cells): L363 (+/−), U266; NFAT-GFP ASSAY Positive Cell lines: U266 (SIR-expressing Jurkat-NFAT-GFP cells cocultured with U266, relative % GFP positive cells): (+/−) |
| B3 | – | L363 (+), U266 (+) | NFAT-GFP ASSAY Positive Cell lines (coculture with L363 cells): L363 (+), U266 (+) |
| B4 | L428 (+) | – | – |
| B5 | L428 (2+) | – | – |
| B6 | – | U266 (+/−) | – |
